Data on one molecule can be found in US9382311.

This experiment has as its target T1, YU2 gp120 (HIV-1, UniProt P35961 32-498).
T1 construct: domain: gp120
Description: ELISA (FIG. 3). Background: ELISA stands for enzyme-linked immunosorbent assay.

B1: VRC-PG-04 (antibody, V domains shown)
VH: QVQLVQSGSGVKKPGASVRVSCWTSEDIFERTELIHWVRQAPGQGLEWIGWVKTVTGAVNFGSPDFRQRVSLTRDRDLFTAHMDIRGLTQGDTATYFCARQKFYTGGQGWYFDLWGRGTLIVVSS
VL: EIVLTQSPGTLSLSPGETASLSCTAASYGHMTWYQKKPGQPPKLLIFATSKRASGIPDRFSGSQFGKQYTLTITRMEPEDFARYYCQQLEFFGQGTRLEIR
notes: also called PGV04
Turning to B1, the binding result was “binds”.
